# Experimental data: PMC8924211 (Nature Communications, 2022)
# Where a chain is given by its changes, count along the chain named.
# T1: SNAP-GAL2R L169^ECL2A (human, UniProt O43603 1-387, L169^ECL2A, Lumi4-Tb on the SNAP tag)
# T1 construct: also called L169A; source: HEK293, transfected, on cells; not shown: SNAP tag, N-terminal, kept
# T1 sequence (looked up): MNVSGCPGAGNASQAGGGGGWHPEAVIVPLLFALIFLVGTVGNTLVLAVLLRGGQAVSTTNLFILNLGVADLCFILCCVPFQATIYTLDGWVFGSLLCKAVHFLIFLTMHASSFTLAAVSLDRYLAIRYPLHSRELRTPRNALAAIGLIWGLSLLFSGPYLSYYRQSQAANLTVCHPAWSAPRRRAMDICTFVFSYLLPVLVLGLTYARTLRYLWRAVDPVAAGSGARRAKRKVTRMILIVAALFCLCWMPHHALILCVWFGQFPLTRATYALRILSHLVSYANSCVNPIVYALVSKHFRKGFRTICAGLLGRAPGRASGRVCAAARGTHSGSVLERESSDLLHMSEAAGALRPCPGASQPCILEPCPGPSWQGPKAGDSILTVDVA
# T2: SNAP-GAL2R R184^5.35A (human, UniProt O43603 1-387, R184^5.35A, Lumi4-Tb on the SNAP tag)
# T2 construct: also called R184A; source: HEK293, transfected, on cells; not shown: SNAP tag, N-terminal, kept
# T2 sequence (looked up): T1 sequence (looked up) with A169L, R184A
# T3: SNAP-GAL2R L255^6.54A (human, UniProt O43603 1-387, L255^6.54A, Lumi4-Tb on the SNAP tag)
# T3 construct: also called L255A; source: HEK293, transfected, on cells; not shown: SNAP tag, N-terminal, kept
# T3 sequence (looked up): T1 sequence (looked up) with A169L, L255A
# T4: SNAP-GAL2R R274^7.35A (human, UniProt O43603 1-387, R274^7.35A, Lumi4-Tb on the SNAP tag)
# T4 construct: also called R274A; source: HEK293, transfected, on cells; not shown: SNAP tag, N-terminal, kept
# T4 sequence (looked up): T1 sequence (looked up) with A169L, R274A
# B1: galanin-A2 (full-length galanin labeled with the dye A2 on an additional cysteine at the C-terminal end) (peptide)
# peptide: GWTLNSAGYLLGPHAVGNHRSFSDKNGLTSC
# modifications: dye A2 on the additional C-terminal cysteine
# notes: numbers count on: the mature protein; additional cysteine at the C-terminal end of the peptide, carries the dye A2; source: synthetic peptide (synthesized by Vazyme, China)
# Tests used:
# [1] = target: SNAP-GAL2R F264^ECL3A (human) (UniProt O43603); assay: AlphaScreen or HTRF; saturation binding: HEK293 cells transfected with SNAP-GAL1R or SNAP-GAL2R (WT or mutants), labelled with SNAP-Lumi4-Tb; increasing concentrations of galanin-A2 with or without 100 uM unlabeled galanin, 1 h at room temperature
# Chain of SNAP-GAL2R F264^ECL3A (human) (O43603 whole entry F264A): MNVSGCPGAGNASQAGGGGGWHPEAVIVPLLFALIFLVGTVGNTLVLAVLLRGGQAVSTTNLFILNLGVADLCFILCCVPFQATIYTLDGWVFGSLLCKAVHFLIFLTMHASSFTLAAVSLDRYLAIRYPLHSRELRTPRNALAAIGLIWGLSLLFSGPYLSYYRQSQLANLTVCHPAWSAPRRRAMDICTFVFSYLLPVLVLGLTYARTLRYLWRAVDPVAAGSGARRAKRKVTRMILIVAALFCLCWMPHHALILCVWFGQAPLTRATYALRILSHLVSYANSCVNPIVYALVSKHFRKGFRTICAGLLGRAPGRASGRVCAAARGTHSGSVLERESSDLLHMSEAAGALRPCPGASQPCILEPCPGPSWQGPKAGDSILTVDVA
# [2] = target: SNAP-GAL2R Q82^2.61A (human) (UniProt O43603); assay: as above
# Chain of SNAP-GAL2R Q82^2.61A (human) (O43603 whole entry Q82A): as the sequence (O43603 whole entry F264A) above, with Q82A, A264F counted along it
# [3] = target: SNAP-GAL2R Y271^7.32A (human) (UniProt O43603); assay: as above
# Chain of SNAP-GAL2R Y271^7.32A (human) (O43603 whole entry Y271A): as the sequence (O43603 whole entry F264A) above, with A264F, Y271A counted along it
# [4] = target: T1, SNAP-GAL2R L169^ECL2A; assay: AlphaScreen or HTRF; saturation binding: HEK293 cells transfected with SNAP-tagged receptor (WT or mutant) and labelled with SNAP-Lumi4-Tb, incubated with increasing concentrations of galanin-A2 in the presence or absence of 100 uM unlabeled galanin, 1 h at room temperature; HTRF ratio 665 nm/620 nm; settings: one partner purified
# [5] = target: T2, SNAP-GAL2R R184^5.35A; assay: as above; settings: one partner purified
# [6] = target: T3, SNAP-GAL2R L255^6.54A; assay: as above; settings: one partner purified
# [7] = target: T4, SNAP-GAL2R R274^7.35A; assay: as above; settings: one partner purified
binder,measurement,setting,value
B1,Kd,[1],> 500 nM
same,Kd,[2],> 500 nM
same,Kd,[3],> 500 nM
same,Kd,[4],86.2 nM
same,Kd,[5],286 nM
same,Kd,[6],55.1 nM
same,Kd,[7],553 nM
